Laboratory results as given in patent publication US20250018038A1 (UNIVERSITY OF CHICAGO, published 2025).

T1: Bor-N (Biotinylated Avi tag, held on neutravidin; not in the letters)
T1 construct: also called Bor N: 20-88; Borealin N-terminal domain; not shown: Avi tag, and any purification tag or linker
T1 chain: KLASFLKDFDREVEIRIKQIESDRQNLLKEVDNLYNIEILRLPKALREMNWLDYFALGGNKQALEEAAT

T2: Bor-C (Biotinylated Avi tag, held on neutravidin; not in the letters)
T2 construct: also called Bor C: 207-280; Borealin C-terminal domain; not shown: Avi tag, and any purification tag or linker
T2 chain: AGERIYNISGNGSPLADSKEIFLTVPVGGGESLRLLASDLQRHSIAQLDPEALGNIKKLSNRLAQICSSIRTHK


Assays:
Bor-N = target: T1, Bor-N; experiment: single point protein ELISA, 50 nM immobilised target
Protocol: (§1) To rapidly reconfirm the binding and specificity of the obtained Fabs after reformatting into the expression vectors single-point Fab ELISA was performed (FIG. 2-3). Briefly, 50 nM Avi-tagged targets were immobilized on the prepared NAV-coated and blocked with 0.5% BSA in PBS 96-well ELISA plates. The target coated plates were washed with appropriate buffer (TBST or PBST) and were incubated with 200 nM Fab for 20 minutes and then washed. The washed plates were incubated with protein L conjugated with HRP (1:5000 diluted in TBST) for 30 minutes. Plates were washed and the reaction was developed using the TMB chromogenic substrate (Thermofisher) and subsequently quenched with 1M HCl. Absorbance was read at 450 nm on Epoch plate reader.

[1] = target: T3, Survivin (purified recombinant Survivin protein) (human, UniProt O15392 1-140, limits assumed, biotinylated on the Avi-tag by BirA (antigens for selection and ELISA)); experiment: multipoint protein ELISA: 50 nM immobilised target, 3-fold serial dilutions of purified Fab, protein L-HRP, sigmoidal fit
T3 construct: also called Baculoviral IAP repeat-containing protein 5; BIRC5
T3 sequence (O15392 1-140 limits assumed): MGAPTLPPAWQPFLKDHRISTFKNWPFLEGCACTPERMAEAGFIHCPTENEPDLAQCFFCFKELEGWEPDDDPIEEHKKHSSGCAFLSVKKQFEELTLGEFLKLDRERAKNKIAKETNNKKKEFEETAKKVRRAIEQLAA
Protocol: Protein based multipoint ELISA was performed to estimate the affinity of the generated unique Fabs to their cognate antigens. A fixed concentration of the immobilized target (50 nM) on ELISA plate was incubated with 3-fold serial dilutions of the purified Fabs starting from […] for 15 min. The plates were washed and the bound antigen-Fab complexes were incubated with H1RP-conjugated protein L (1:5000 dilution in PBST). As with phage ELISA, the plates were again washed, developed with TMB substrate and quenched with 1.0 M HCl, and absorbance (A450) was determined. To determine the affinity, the data were fitted in a non-linear sigmoidal function with variable slope in GraphPad PRISM and EC50 value was calculated (FIG. 2).

Bor-C = target: T2, Bor-C; experiment: single point protein ELISA, 50 nM immobilised target
Protocol: as §1

[2] = target: T4, cell surface survivin on cancer cells (human, UniProt O15392 1-142); experiment: flow cytometry of live cells, 200 nM Fab, anti-human F(ab')2-A647 secondary
T4 construct: whole, on cells
T4 sequence (O15392 whole entry): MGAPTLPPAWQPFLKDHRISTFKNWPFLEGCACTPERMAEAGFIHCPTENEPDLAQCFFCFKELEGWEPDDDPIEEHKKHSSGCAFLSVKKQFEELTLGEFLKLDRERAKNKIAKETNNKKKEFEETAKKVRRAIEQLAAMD
Protocol: Human or murine tumor cells were trypsinized, washed and resuspended in Flow buffer (1×PBS supplemented with 2% FBS) and added to a 96-well plate (#3799, Costar). 200 nM primary CPC Fab was mixed with 0.5M cells and incubated at 37 C for 20 min. […] Samples were analyzed by flow cytometry using CytoFLEX (Beckman Coulter) and mean fluorescence intensity (MFI) data was extracted using the FlowJo software (FIG. 5A-E, FIG. 6). Human peripheral blood mononuclear cells (PBMCs) derived from a single patient were used as a source of healthy human cells. PBMCs were counted, split and spun down 400×g 5 min. Cells were resuspended in Flow buffer (1×PBS supplemented with 2% FBS) and pre-incubated with TruStain FcX (1:20, Biolegend 422302) for 10 min at 37 C, followed by 200 nM primary Fab incubation at 37 for 20 min. […] Mean fluorescence intensity (MFI) data was extracted using the FlowJo software (FIG. 5F).

Row | binding result (Bor-N) | binding result (Bor-C) | Binder | EC50 [1] [nM] | binding result [2]
1 | no binding (tested: 200 nM) | – | SUR-N-37 (Fab, V domains shown, also called SUR-N-37 Fab) VH: EVQLVESGGGLVQPGGSLRLSCAASGFNVSYSSIHWVRQAPGKGLEWVASISSYYGSTSYADSVKGRFTISADTSKNTAYLQMNSLRAEDTAVYYCARSTYYSWYPYYYAMWHQHGMDYWGQGTLVTVSS VL: DIQMTQSPSSLSASVGDRVTITCRASQSVSSAVAWYQQKPGKAPKLLIYSASSLYSGVPSRFSGSRSGTDFTLTISSLQPEDFATYYCQQSPMYSLITFGQGTKVEIKR | 1 | –
2 | no binding (tested: 200 nM) | no binding (tested: 200 nM) | SUR-N-45 Fab (Fab, V domains shown) VH: EVQLVESGGGLVQPGGSLRLSCAASGFNLSSSSIHWVRQAPGKGLEWVASISSYSGYTYYADSVKGRFTISADTSKNTAYLQMNSLRAEDTAVYYCARPHWNSSYFSGWAMDYWGQGTLVTVSS VL: DIQMTQSPSSLSASVGDRVTITCRASQSVSSAVAWYQQKPGKAPKLLIYSASSLYSGVPSRFSGSRSGTDFTLTISSLQPEDFATYYCQQWSSKSPITFGQGTKVEIKR | – | binds
